The data set is described as follows: amyloid nucleation score (Sup35N fusion, yeast selection) (log enrichment); library NNK3; higher = more nucleation; inactive = no reads after selection. In short, it runs like this: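 Yeast lacking psi expressed peptides of 20 random codons fused to Sup35N, received 100 μM copper sulfate for 24 hours, and were then grown for 7 days at 30°C on medium lacking adenine and uracil. Illumina sequencing of input and output plasmid inserts provided the reads. Nucleation scores are DiMSum log enrichments of output over input, centred on the mode of non-aggregating sequences. Any sequence with under 100 input reads was excluded.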

± gives the uncertainty stated by the source.

FNVSHLVRYSVCYFCGMIEL returned an amyloid nucleation score of 1.89 ± 0.063.

Take LCIPVDFVGGTIRLCVL: the amyloid nucleation score entry is “inactive”.

YMESVARNSLRVSDCNAK: the amyloid nucleation score was 0.7 ± 0.14.

YVVFFDFLSQTVIWVSPGRF: the amyloid nucleation score result was “inactive”.

Turning to SGGGIPGTLGSGDPSSPNTQ, the amyloid nucleation score entry was “inactive”.

In the case of LRHWRMRLSIGN, the amyloid nucleation score result was “inactive”.

On to HDCSYLGILKDMDS, for which the amyloid nucleation score result is “inactive”.

IKRCK yielded an amyloid nucleation score of 1.39 ± 0.076.

For SICCMWMWMACAIKFQNTRR, the amyloid nucleation score is -0.519 ± 1.9.

For HFMLNIWKVDNNMLWVLICP, the amyloid nucleation score entry is “inactive”.

With QSPRDTSPDLRTYCLVA, the amyloid nucleation score result is “inactive”.

As to DIFSRSVS, the amyloid nucleation score entry was “inactive”.

Consider DAISVLCFLLKSFRWSTFRG, for which the amyloid nucleation score entry was “inactive”.

Consider AYVRLKRCWDTFWLRI, for which the amyloid nucleation score entry is “inactive”.

Take CESDEH: the amyloid nucleation score entry is “inactive”.

ETWLKTINRLGLNRSHLSIL: the amyloid nucleation score entry is “inactive”.

Consider LMDFLKYAMFRGTMVCW, for which the amyloid nucleation score entry was “inactive”.

In the case of RSTFYIISCRTVDWESVSTR, the amyloid nucleation score result was “inactive”.

Take VYFENSGFTTVTREACLY: the amyloid nucleation score result is “inactive”.

WMPQFCLRCSSVV: the amyloid nucleation score result is “inactive”.

MITLDCLNNNI: the amyloid nucleation score result is “inactive”.

On to PVYGSLCRFYGVRYGR, for which the amyloid nucleation score result is “inactive”.

For the substance FYYTKDPRIGKNNYLCV, the amyloid nucleation score entry is “inactive”.

Regarding YSCFFIPWRVGAYRTDNFRS, the amyloid nucleation score entry is “inactive”.

On to CDRRFYRMNLCKNPFNYRFG, for which the amyloid nucleation score turned out to be 0.55 ± 0.16.

KNDSVKSKCVSIGVPVPLLV: the amyloid nucleation score entry is “inactive”.

On to YRNMFQPRRNEAARQQLSST, for which the amyloid nucleation score entry was “inactive”.

YVVPRFTVMGEQKKCQWRSL: the amyloid nucleation score entry was “inactive”.

SVSHAE: the amyloid nucleation score entry is “inactive”.

On to KSLSGVIREENRDARGFWRS, for which the amyloid nucleation score result was “inactive”.

In turn, FSCPRVSIFGLCSNCMYQWW yielded an amyloid nucleation score of 2.43 ± 0.057.

RKLKHLS: the amyloid nucleation score result was “inactive”.

For VVGLWTNS, the amyloid nucleation score entry was “inactive”.

Consider MVLLI, for which the amyloid nucleation score is -0.031 ± 1.

HRVRYVGPENSQNLCIRDYY: the amyloid nucleation score result was “inactive”.

Consider VDKLFCWGLYGLATVDNRVY, for which the amyloid nucleation score result was “inactive”.

As to YPWGEGNGYTCGV, the amyloid nucleation score result was “inactive”.

Take CIAYNMVSDYVSIGFNAGDM: the amyloid nucleation score result was “inactive”.

As to RYWHEASVVGFIWGKWVDVS, the amyloid nucleation score result is “inactive”.

Take LMCDWGVY: the amyloid nucleation score is -0.175 ± 0.85.

Consider RKLTCTSGLA, for which the amyloid nucleation score result is “inactive”.

As for CYCVGHAVLCRPEHLCSVRL, the amyloid nucleation score entry is “inactive”.

Consider RHGVTMRLSCQTWHFAFHLR, for which the amyloid nucleation score result was “inactive”.

In turn, TRVDLLYRSRNDGIVFFSRF yielded an amyloid nucleation score of 0.773 ± 0.2.

Consider WKDWKLRPNY, for which the amyloid nucleation score result was “inactive”.

On to MGVVNFVITGNSYCAKVMLY, for which the amyloid nucleation score result is “inactive”.

Regarding TFKPDQYRFVHEYSTMRVLM, the amyloid nucleation score entry is “inactive”.

As for VSDRVSLSVGG, the amyloid nucleation score result is “inactive”.

Substance KMTGLWLNVAVSDAFLEYDE registered an amyloid nucleation score of 1.46 ± 0.13.

VISYYIATGGFIDVFYCCKF displayed an amyloid nucleation score of 2.15 ± 0.085.

For QEGGRWEPQKGRWESQAYLS, the amyloid nucleation score is -0.062 ± 0.49.

Regarding CMAFLHPLF, the amyloid nucleation score entry was “inactive”.

Turning to AFLFTLL, the amyloid nucleation score result is “inactive”.

With LYDLNLSDLMNCRYTIRGWF, the amyloid nucleation score entry was “inactive”.

On to SWKARDYRGSVLGSIIRDFN, for which the amyloid nucleation score entry is “inactive”.

For LVRRHSFSGYRRDT, the amyloid nucleation score result was “inactive”.

In the case of NLMEYSAC, the amyloid nucleation score turned out to be 0.182 ± 0.28.

As for TQNGGVNVIRFYLCDFLSGL, the amyloid nucleation score stood at 2.87 ± 0.067.

Consider YLVWVFPEWPC, for which the amyloid nucleation score came out at 1.39 ± 0.13.

The substance VNNKIVVWTIMSSNDERLPS yielded an amyloid nucleation score of 1.54 ± 0.082.

Turning to SCIRVRRNATVAVVLDDMLK, the amyloid nucleation score entry is “inactive”.

In the case of PTATRGPMTLRSHASHHRTL, the amyloid nucleation score entry is “inactive”.

For VWVVV, the amyloid nucleation score result was “inactive”.

NPLFMQSLKLRCCRNLRFRS: the amyloid nucleation score entry was “inactive”.

Turning to KLGIRPDRISVTWCLSNTTV, the amyloid nucleation score is -0.473 ± 1.3.

For WRKTSVMFADSGIV, the amyloid nucleation score entry was “inactive”.

In the case of MAPPNIWFQCQ, the amyloid nucleation score entry is “inactive”.

On to NLLDNRIFYHMD, for which the amyloid nucleation score entry was “inactive”.

For the substance YIEILE, the amyloid nucleation score entry was “inactive”.

In the case of HYDFWIISYLPRSPGNMAID, the amyloid nucleation score entry is “inactive”.

PCDQD: the amyloid nucleation score entry was “inactive”.

Take MSKHRMFLSGRLFRANEVRP: the amyloid nucleation score result is “inactive”.

Consider AVASSRYNLEYLSRSLCVMS, for which the amyloid nucleation score entry is “inactive”.

With RKNVRMMA, the amyloid nucleation score result was “inactive”.

ISDDICSVKVSGRRACHWIG: the amyloid nucleation score result is “inactive”.

RDRGKY: the amyloid nucleation score entry was “inactive”.

Take NVILYGKNLS: the amyloid nucleation score result is “inactive”.

SLGFGIDSSYGLLTGYKFFT came in with an amyloid nucleation score of 0.264 ± 0.21.

With RWAKSEAVLLVFGEFSLVGW, the amyloid nucleation score entry is “inactive”.

LSYYVFRYTNTHWSPCFYIE: the amyloid nucleation score entry was “inactive”.

Consider DAFYIFWLDTSWFRWYAGTS, for which the amyloid nucleation score was -0.131 ± 0.61.

NCIAWYQW showed an amyloid nucleation score of -0.393 ± 0.7.

For KPCSRVSWNVVQVV, the amyloid nucleation score entry is “inactive”.

With DSGLCV, the amyloid nucleation score result was “inactive”.

Regarding CANNYGGMLRECQVSGYSCM, the amyloid nucleation score entry is “inactive”.

On to ILDMSERFQILNNFR, for which the amyloid nucleation score result is “inactive”.

As to KQRVASTTTVAPHPKNKD, the amyloid nucleation score entry was “inactive”.

Turning to ANVHNTENLRGLILCRRLLH, the amyloid nucleation score entry was “inactive”.

As for ARAYRDQGWPEKEIAQHK, the amyloid nucleation score result is “inactive”.

In the case of SRGVRIDKMVWNVIGFCHGW, the amyloid nucleation score amounted to 2.8 ± 0.08.

In the case of ILDWG, the amyloid nucleation score stood at 0.886 ± 0.15.

CAVFRVSRISINTDAIFITC gave an amyloid nucleation score of 1.74 ± 0.054.

WWSKRLKRLVNCGLR: the amyloid nucleation score entry is “inactive”.

Regarding DVFRRFAGRTLQLSPWDTTL, the amyloid nucleation score entry was “inactive”.

Consider TTELVF, for which the amyloid nucleation score entry is “inactive”.

Consider PPLYSRYLSFNGMTKVPWIC, for which the amyloid nucleation score result is “inactive”.

For VFLSICSEGTFCLGDLSGCV, the amyloid nucleation score amounted to 2.43 ± 0.082.

As for PTITNS, the amyloid nucleation score result is “inactive”.

For LFVYHCYIFSMRSRCMSHLY, the amyloid nucleation score entry was “inactive”.

For NRMRPIDNLGHISMFGVLGG, the amyloid nucleation score entry is “inactive”.

Regarding ASQFRCDHCMPRLKGETMET, the amyloid nucleation score entry was “inactive”.

On to KYKSVCVKFNEDLTG, for which the amyloid nucleation score entry was “inactive”.

On to YMLCC, for which the amyloid nucleation score result was “inactive”.

Take ISAGFAGNN: the amyloid nucleation score entry is “inactive”.

With KSSMKLLSPP, the amyloid nucleation score result was “inactive”.

Regarding SYPGQLRSPVSV, the amyloid nucleation score entry was “inactive”.

Take LFMLIFGCVHARNYFKPKKV: the amyloid nucleation score entry was “inactive”.

In turn, LNVCVMEKNSNLRWSYWDLC had an amyloid nucleation score of 1.09 ± 0.15.

Regarding ALVAPKAGAFMSLKVQLGMP, the amyloid nucleation score worked out at 1.67 ± 0.073.

In the case of PLIWCWKIVGRAWFAESRIL, the amyloid nucleation score result was “inactive”.

The substance MSQCFVCRFAFLIN showed an amyloid nucleation score of 1.57 ± 0.067.

Take ILHFRETLTRINNLEA: the amyloid nucleation score result was “inactive”.

For the substance DTPMESGTGATHLVRIVHSA, the amyloid nucleation score entry was “inactive”.

KDNKGMGRMFSNILFFTISL showed an amyloid nucleation score of 0.663 ± 0.13.

Regarding YITVRR, the amyloid nucleation score is -0.297 ± 1.1.

Consider IPIFWCYI, for which the amyloid nucleation score result is “inactive”.

Regarding TFRVNMCNPLMLGYVLFWLD, the amyloid nucleation score result is “inactive”.

For the substance SLMLLRRTAVRPHWWKLRPN, the amyloid nucleation score entry was “inactive”.

With NLLYSCVYRHQPLYPAMDFP, the amyloid nucleation score result is “inactive”.

Consider NDRVIRVGVN, for which the amyloid nucleation score entry was “inactive”.

As for HPRTLSRLNINFRANRYGWS, the amyloid nucleation score was -0.859 ± 1.7.

As to RLGMWVFWCRL, the amyloid nucleation score entry is “inactive”.

For the substance WCLSCVLTNIRVRIPNRTVV, the amyloid nucleation score entry is “inactive”.

As for AYLTI, the amyloid nucleation score entry was “inactive”.

As for LVGTRRLSSYRHRFKWITIG, the amyloid nucleation score entry was “inactive”.

In the case of LYMRLIGIRRAMHIYPPLKS, the amyloid nucleation score entry is “inactive”.

Regarding SFITTCIYRNVSVFCDHSAE, the amyloid nucleation score result is “inactive”.

Turning to FVLIPSHRAW, the amyloid nucleation score result is “inactive”.

Turning to LYLVMSYV, the amyloid nucleation score entry is “inactive”.

In the case of DIQNFHQKTKGCLLFVWRRQ, the amyloid nucleation score result was “inactive”.

With YKSSNRSFFGIMANQPRLGC, the amyloid nucleation score entry is “inactive”.

The substance CILYYLNSSMVIGTCLFILN came in with an amyloid nucleation score of 1.36 ± 0.085.

Take VHCHV: the amyloid nucleation score was -0.536 ± 0.93.

Turning to YLGCSINLGTEDIIYAESEH, the amyloid nucleation score entry was “inactive”.

The record behind these values is the supplement of paper PMC12042874.
